The test system of test [1] is GFP-14-3-3β and its binding proteins. As to the kind of experiment: GFP-14-3-3β co-IP with LC-MS/MS label-free quantification, untreated versus PP1c-treated. Further details: species or system human. Particulars: GFP-14-3-3β co-IP LC-MS/MS; PP1 vs untreated; student's t-test; label-free quantification, 3 replicates each.
Test [2] has as its system GFP-14-3-3β. Kind of test: GFP-14-3-3β co-IP with LC-MS/MS, untreated GFP-14-3-3β versus GFP control (14-3-3 interactome). Type of test: binding, human. The note with it: GFP-14-3-3β co-IP LC-MS/MS; untreated vs GFP; student's t-test; label-free quantification, 3 replicates each.

B1: COBL (protein, UniProt O75128 1-1261, looked up)
Protein cordon-bleu: MDAPRASAAKPPTGRKMKARAPPPPGKAATLHVHSDQKPPHDGALGSQQNLVRMKEALRASTMDVTVVLPSGLEKRSVLNGSHAMMDLLVELCLQNHLNPSHHALEIRSSETQQPLSFKPNTLIGTLNVHTVFLKEKVPEEKVKPGPPKVPEKSVRLVVNYLRTQKAVVRVSPEVPLQNILPVICAKCEVSPEHVVLLRDNIAGEELELSKSLNELGIKELYAWDNRRETFRKSSLGNDETDKEKKKFLGFFKVNKRSNSKGCLTTPNSPSMHSRSLTLGPSLSLGSISGVSVKSEMKKRRAPPPPGSGPPVQDKASEKVSLGSQIDLQKKKRRAPAPPPPQPPPPSPLIPNRTEDKEENRKSTMVSLPLGSGSHCSPDGAPQVLSEAEETVSVGSCFASEDTTEDSGVMSSPSDIVSLDSQQDSMKYKDKWATDQEDCSDQDLAGTPDLGPQKSPLWEKNGSENSHLRTEKAVTASNDEEDLLIAGEFRKTLAELDEDLEEMEDSYETDTSSLTSSIHGASNHCPQDAMIPHGDTDAIPVTFIGEVSDDPVDSGLFSNRNNNAGSFDSEGVASRRDSLAPLQAEHSQPHEKAREEVPALHPASHDVGKGIRVALSNISKDGNLMETAPRVTSFASNLHTDNLNAKVKDKVYGCADGERTQATERVNSQPVNEKDSNDKNAALAPTSWHQRGQNPGKSYRLKHGLTTYKIIPPKSEMRCYDRDVSLSTGAIKIDELGNLVSPHATGIRIISLSSSVPEAESQPIGKVREFWRCNSVEKHLGRPSESSARGPPSTPVPTQTQNPESRLQADPKPISPQQKSAHHEGRNPLGEGRNQPPTMGMGHVRVPAAHTTEVTFLKPQRRTSSQYVASAIAKRIGAPKVHADVVRPHGYAEKGYAGKAPVLAAPPVTVKDDRTSSPHSETQGWKDGAQWPCVTPPNNHGEDLAVGAPPRGEVIGPHRKLSTQDRPAAIHRSSCFSLVQSSQRDRVSVGQSCGFSGKQSTSSQEASSASEPRRAPDGTDPPPPHTSDTQACSRELVNGSVRAPGHGEPSHPPGGSGTESHILLEREEKPSVFSTDGNETDSIWPPSIFGPKKKFKPVVQRPVPKDTSLHSALMEAIHSAGGKDRLRKTAEHTGEGRPAKLSYTEAEGERSALLAAIRGHSGTCSLRKVASSASEELQSFRDAALSAQGSESPLLEDLGLLSPPAIPPPPPPPSQALSAPRTASRFSTGTLSNTADARQALMDAIRSGTGAARLRKVPLLV
With B1, in test [1], the “Difference (log2), PP1 vs untreated” value is -0.2795 log2. In addition, in test [2], the “Difference (log2), untreated vs GFP” value is -0.6052 log2.

B2: CANX (protein, UniProt P27824 21-592, looked up)
Calnexin: HDGHDDDVIDIEDDLDDVIEEVEDSKPDTTAPPSSPKVTYKAPVPTGEVYFADSFDRGTLSGWILSKAKKDDTDDEIAKYDGKWEVEEMKESKLPGDKGLVLMSRAKHHAISAKLNKPFLFDTKPLIVQYEVNFQNGIECGGAYVKLLSKTPELNLDQFHDKTPYTIMFGPDKCGEDYKLHFIFRHKNPKTGIYEEKHAKRPDADLKTYFTDKKTHLYTLILNPDNSFEILVDQSVVNSGNLLNDMTPPVNPSREIEDPEDRKPEDWDERPKIPDPEAVKPDDWDEDAPAKIPDEEATKPEGWLDDEPEYVPDPDAEKPEDWDEDMDGEWEAPQIANPRCESAPGCGVWQRPVIDNPNYKGKWKPPMIDNPSYQGIWKPRKIPNPDFFEDLEPFRMTPFSAIGLELWSMTSDIFFDNFIICADRRIVDDWANDGWGLKKAADGAAEPGVVGQMIEAAEERPWLWVVYILTVALPVFLVILFCCSGKKQTSGMEYKKTDAPQPDVKEEEEEKEEEKDKGDEEEEGEEKLEEKQKSDAEEDGGTVSQEEEDRKPKAEEDEILNRSPRNRKPRRE
For B2, in test [1], the “Difference (log2), PP1 vs untreated” value is reported as -0.251 log2. Further, in test [2], the “Difference (log2), untreated vs GFP” value was determined as 0.347 log2.

B3: NAT10 (protein, UniProt Q9H0A0 1-1025, looked up)
RNA cytidine acetyltransferase: MHRKKVDNRIRILIENGVAERQRSLFVVVGDRGKDQVVILHHMLSKATVKARPSVLWCYKKELGFSSHRKKRMRQLQKKIKNGTLNIKQDDPFELFIAATNIRYCYYNETHKILGNTFGMCVLQDFEALTPNLLARTVETVEGGGLVVILLRTMNSLKQLYTVTMDVHSRYRTEAHQDVVGRFNERFILSLASCKKCLVIDDQLNILPISSHVATMEALPPQTPDESLGPSDLELRELKESLQDTQPVGVLVDCCKTLDQAKAVLKFIEGISEKTLRSTVALTAARGRGKSAALGLAIAGAVAFGYSNIFVTSPSPDNLHTLFEFVFKGFDALQYQEHLDYEIIQSLNPEFNKAVIRVNVFREHRQTIQYIHPADAVKLGQAELVVIDEAAAIPLPLVKSLLGPYLVFMASTINGYEGTGRSLSLKLIQQLRQQSAQSQVSTTAENKTTTTARLASARTLYEVSLQESIRYAPGDAVEKWLNDLLCLDCLNITRIVSGCPLPEACELYYVNRDTLFCYHKASEVFLQRLMALYVASHYKNSPNDLQMLSDAPAHHLFCLLPPVPPTQNALPEVLAVIQVCLEGEISRQSILNSLSRGKKASGDLIPWTVSEQFQDPDFGGLSGGRVVRIAVHPDYQGMGYGSRALQLLQMYYEGRFPCLEEKVLETPQEIHTVSSEAVSLLEEVITPRKDLPPLLLKLNERPAERLDYLGVSYGLTPRLLKFWKRAGFVPVYLRQTPNDLTGEHSCIMLKTLTDEDEADQGGWLAAFWKDFRRRFLALLSYQFSTFSPSLALNIIQNRNMGKPAQPALSREELEALFLPYDLKRLEMYSRNMVDYHLIMDMIPAISRIYFLNQLGDLALSAAQSALLLGIGLQHKSVDQLEKEIELPSGQLMGLFNRIIRKVVKLFNEVQEKAIEEQMVAAKDVVMEPTMKTLSDDLDEAAKEFQEKHKKEVGKLKSMDLSEYIIRGDDEEWNEVLNKAGPNASIISLKSDKKRKLEAKQEPKQSKKLKNRETKNKKDMKLKRKK
For B3, the “Difference (log2), PP1 vs untreated” value in test [1] is -0.2324 log2. Moreover, the “Difference (log2), untreated vs GFP” value in test [2] turned out to be 2.262 log2.

B4: HNRNPR (protein, UniProt O43390 2-633, looked up)
Heterogeneous nuclear …: ANQVNGNAVQLKEEEEPMDTSSVTHTEHYKTLIEAGLPQKVAERLDEIFQTGLVAYVDLDERAIDALREFNEEGALSVLQQFKESDLSHVQNKSAFLCGVMKTYRQREKQGSKVQESTKGPDEAKIKALLERTGYTLDVTTGQRKYGGPPPDSVYSGVQPGIGTEVFVGKIPRDLYEDELVPLFEKAGPIWDLRLMMDPLSGQNRGYAFITFCGKEAAQEAVKLCDSYEIRPGKHLGVCISVANNRLFVGSIPKNKTKENILEEFSKVTEGLVDVILYHQPDDKKKNRGFCFLEYEDHKSAAQARRRLMSGKVKVWGNVVTVEWADPVEEPDPEVMAKVKVLFVRNLATTVTEEILEKSFSEFGKLERVKKLKDYAFVHFEDRGAAVKAMDEMNGKEIEGEEIEIVLAKPPDKKRKERQAARQASRSTAYEDYYYHPPPRMPPPIRGRGRGGGRGGYGYPPDYYGYEDYYDDYYGYDYHDYRGGYEDPYYGYDDGYAVRGRGGGRGGRGAPPPPRGRGAPPPRGRAGYSQRGAPLGPPRGSRGGRGGPAQQQRGRGSRGSRGNRGGNVGGKRKADGYNQPDSKRRQTNNQQNWGSQPIAQQPLQQGGDYSGNYGYNNDNQEFYQDTYGQQWK
With B4, the “Difference (log2), PP1 vs untreated” value in test [1] was -0.2799 log2. For the same molecule, the “Difference (log2), untreated vs GFP” value in test [2] worked out at 0.8033 log2.

B5: XPOT (protein, UniProt O43592 1-962, looked up)
Exportin-T: MDEQALLGLNPNADSDFRQRALAYFEQLKISPDAWQVCAEALAQRTYSDDHVKFFCFQVLEHQVKYKYSELTTVQQQLIRETLISWLQAQMLNPQPEKTFIRNKAAQVFALLFVTEYLTKWPKFFFDILSVVDLNPRGVDLYLRILMAIDSELVDRDVVHTSEEARRNTLIKDTMREQCIPNLVESWYQILQNYQFTNSEVTCQCLEVVGAYVSWIDLSLIANDRFINMLLGHMSIEVLREEACDCLFEVVNKGMDPVDKMKLVESLCQVLQSAGFFSIDQEEDVDFLARFSKLVNGMGQSLIVSWSKLIKNGDIKNAQEALQAIETKVALMLQLLIHEDDDISSNIIGFCYDYLHILKQLTVLSDQQKANVEAIMLAVMKKLTYDEEYNFENEGEDEAMFVEYRKQLKLLLDRLAQVSPELLLASVRRVFSSTLQNWQTTRFMEVEVAIRLLYMLAEALPVSHGAHFSGDVSKASALQDMMRTLVTSGVSSYQHTSVTLEFFETVVRYEKFFTVEPQHIPCVLMAFLDHRGLRHSSAKVRSRTAYLFSRFVKSLNKQMNPFIEDILNRIQDLLELSPPENGHQSLLSSDDQLFIYETAGVLIVNSEYPAERKQALMRNLLTPLMEKFKILLEKLMLAQDEERQASLADCLNHAVGFASRTSKAFSNKQTVKQCGCSEVYLDCLQTFLPALSCPLQKDILRSGVRTFLHRMIICLEEEVLPFIPSASEHMLKDCEAKDLQEFIPLINQITAKFKIQVSPFLQQMFMPLLHAIFEVLLRPAEENDQSAALEKQMLRRSYFAFLQTVTGSGMSEVIANQGAENVERVLVTVIQGAVEYPDPIAQKTCFIILSKLVELWGGKDGPVGFADFVYKHIVPACFLAPLKQTFDLADAQTVLALSECAVTLKTIHLKRGPECVQYLQQEYLPSLQVAPEIIQEFCQALQQPDAKVFKNYLKVFFQRAKP
On to B5, for which the “Difference (log2), PP1 vs untreated” value in test [1] is given as -0.251 log2. Moreover, the “Difference (log2), untreated vs GFP” value in test [2] is 1.37 log2.

B6: WDR36 (protein, UniProt Q8NI36 1-895, looked up)
WD repeat-containing protein …: MERASERRTASALFAGFRALGLFSNDIPHVVRFSALKRRFYVTTCVGKSFHTYDVQKLSLVAVSNSVPQDICCMAADGRLVFAAYGNVFSAFARNKEIVHTFKGHKAEIHFLQPFGDHIISVDTDGILIIWHIYSEEEYLQLTFDKSVFKISAILHPSTYLNKILLGSEQGSLQLWNVKSNKLLYTFPGWKVGVTALQQAPAVDVVAIGLMSGQVIIHNIKFNETLMKFRQDWGPITSISFRTDGHPVMAAGSPCGHIGLWDLEDKKLINQMRNAHSTAIAGLTFLHREPLLVTNGADNALRIWIFDGPTGEGRLLRFRMGHSAPLTNIRYYGQNGQQILSASQDGTLQSFSTVHEKFNKSLGHGLINKKRVKRKGLQNTMSVRLPPITKFAAEEARESDWDGIIACHQGKLSCSTWNYQKSTIGAYFLKPKELKKDDITATAVDITSCGNFAVIGLSSGTVDVYNMQSGIHRGSFGKDQAHKGSVRGVAVDGLNQLTVTTGSEGLLKFWNFKNKILIHSVSLSSSPNIMLLHRDSGILGLALDDFSISVLDIETRKIVREFSGHQGQINDMAFSPDGRWLISAAMDCSIRTWDLPSGCLIDCFLLDSAPLNVSMSPTGDFLATSHVDHLGIYLWSNISLYSVVSLRPLPADYVPSIVMLPGTCQTQDVEVSEETVEPSDELIEYDSPEQLNEQLVTLSLLPESRWKNLLNLDVIKKKNKPKEPPKVPKSAPFFIPTIPGLVPRYAAPEQNNDPQQSKVVNLGVLAQKSDFCLKLEEGLVNNKYDTALNLLKESGPSGIETELRSLSPDCGGSIEVMQSFLKMIGMMLDRKRDFELAQAYLALFLKLHLKMLPSEPVLLEEITNLSSQVEENWTHLQSLFNQSMCILNYLKSALL
For B6, in test [1], the “Difference (log2), PP1 vs untreated” value is -0.2458 log2. Moreover, in test [2], the “Difference (log2), untreated vs GFP” value is recorded as 1.174 log2.
